From paper PMC4682114 come the findings set out here.

In data set [1] the target is Cy3-Cy5 labelled unmodified nucleosome (Cy3-L DNA, Cy5 on H2A K119C) (human) (UniProt P0C0S8). In words: other fluorescence titration; FRET efficiency between Cy3 on the DNA and Cy5 on the histone octamer (reports DNA wrapping) against H1 concentration; 5 nM nucleosomes, 0-300 nM H1, 10 mM Tris-HCl pH 8.0, 130 mM NaCl, 10% glycerol, 0.005% TWEEN20, 10 min at 20 C; Hill curve, S1/2; points of aggregated nucleosomes excluded.

Data set [2] addresses Histone H1.0 (human) (UniProt P07305). In words: PIFE. The conditions noted are these: AmC6dT at position 43; unlabelled human octamer; FRET/PIFE/EMSA: 5 nM nucleosomes, 10 mM Tris-HCl pH 8.0, 130 mM NaCl, 10% glycerol, 0.005% Tween20, 10 min at 20 C; EMSA on 4% polyacrylamide, 0.3x TTE. A general note: A gel shift assay detects complexes by their altered migration in electrophoresis.

Data set [3] has the same target. In words: FRET. The note with it: FRET/PIFE/EMSA: 5 nM nucleosomes, 10 mM Tris-HCl pH 8.0, 130 mM NaCl, 10% glycerol, 0.005% Tween20, 10 min at 20 C, EMSA on 4% polyacrylamide, 0.3x TTE.
The target of the next data set is Histone H1.2 (human) (UniProt P16403). In words: FRET. The conditions noted are these: AmC6dT at position 43; human octamer H2A(K119C), H2B, H3(C110A), H4; FRET/PIFE/EMSA: 5 nM nucleosomes, 10 mM Tris-HCl pH 8.0, 130 mM NaCl, 10% glycerol, 0.005% Tween20, 10 min at 20 C; EMSA on 4% polyacrylamide, 0.3x TTE.
In another data set the target is Histone H1.x (human) (UniProt Q92522). The data set can be described thus: FRET. The conditions noted are these: AmC6dT at position 43; human octamer H2A(K119C), H2B, H3(C110A), H4; FRET/PIFE/EMSA: 5 nM nucleosomes, 10 mM Tris-HCl pH 8.0, 130 mM NaCl, 10% glycerol, 0.005% Tween20, 10 min at 20 C; EMSA on 4% polyacrylamide, 0.3x TTE.
The target in data set [4] is Cy3 only labelled unmodified nucleosome (Cy3-L DNA, unlabelled histone octamer) (human) (UniProt P0C0S8). The data set can be described thus: other fluorescence titration; PIFE (protein-induced fluorescence enhancement) of Cy3 on the linker DNA of Cy3 only nucleosomes; 5 nM nucleosomes, 0-300 nM H1 and/or 0-1,000 nM Gal4, 10 mM Tris-HCl pH 8.0, 130 mM NaCl, 10% glycerol, 0.005% TWEEN20, 10 min at 20 C; Hill curve, S1/2.

The target of data set [5] is Cy3-Cy5 labelled H3K122ac nucleosome (Cy3-L DNA) (UniProt P0C0S8). In words: other fluorescence titration; FRET efficiency between Cy3 on the DNA and Cy5 on the histone octamer (reports DNA wrapping) against H1 concentration; 5 nM nucleosomes, 0-300 nM H1, 10 mM Tris-HCl pH 8.0, 130 mM NaCl, 10% glycerol, 0.005% TWEEN20, 10 min at 20 C; Hill curve, S1/2; points of aggregated nucleosomes excluded.

The target of data set [6] is Cy3-Cy5 labelled H3K56Q nucleosome (Cy3-L DNA) (human) (UniProt P0C0S8). The description is as above.
Data set [7] concerns the target Cy3-Cy5 labelled H3K56ac nucleosome (Cy3-L DNA) (UniProt P0C0S8). The description is as above.

For the substance “human linker histone H1.x, 6xHis tagged (from UniProt Q92522 1-213) (natural protein)”, in data set [1], the S1/2 worked out at 13 nM.

“AAGCTTGTCGACGAATTCAGATATAAGGAGGACACTGGGACATGCATCGGCTGGAGACCGGAGGGCTGCCCTCCGGTCAATTGGTCGTAGACAGCTCTAGCACCGCTTAAACGCACGTACGCGCTGTCCCCCGCGTTTTAACCGCCAAGGGGATTACTCCCTAGTCTCCAGGCACGTGTCAGATATATACATCCTGTATAATGCATAGGGCAGTGAGTTGACGCTACAATCACGAATTCTGGATCCGATACGTAACGCGTCTGCAGCATGCG (double strand) [Cy3-L nucleosome, unmodified, Cy3 only]”: the K half with Histone H1.0 (human) [2] came out at 13 nM.

For “AAGCTTGTCGACGAATTCAGATATAAGGAGGACACTGGGACATGCATCGGCTGGAGACCGGAGGGCTGCCCTCCGGTCAATTGGTCGTAGACAGCTCTAGCACCGCTTAAACGCACGTACGCGCTGTCCCCCGCGTTTTAACCGCCAAGGGGATTACTCCCTAGTCTCCAGGCACGTGTCAGATATATACATCCTGTATAATGCATAGGGCAGTGAGTTGACGCTACAATCACGAATTCTGGATCCGATACGTAACGCGTCTGCAGCATGCG (double strand) [Cy3-L nucleosome, unmodified, Cy5-H2A(K119C)]”, the K half with Histone H1.0 (human) [3] (AmC6dT at position 43, human octamer H2A(K119C), H2B, H3(C110A), H4) turned out to be 9 nM; with Histone H1.2 (human), 6 nM; in the data set with Histone H1.x (human) it was 13 nM.

As for “AAGCTTGTCGACGAATTCAGATATAAGGAGGACACTGGGACATGCATCGGCTGGAGACCGGAGGGCTGCCCTCCGGTCAATTGGTCGTAGACAGCTCTAGCACCGCTTAAACGCACGTACGCGCTGTCCCCCGCGTTTTAACCGCCAAGGGGATTACTCCCTAGTCTCCAGGCACGTGTCAGATATATACATCCTGT (double strand) [Linker-L nucleosome]”, the K half with Histone H1.0 (human) [3] (AmC6dT at position 43, human octamer) stood at 12 nM.

“human linker histone H1.2, 6xHis tagged (from UniProt P16403 1-213) (natural protein)” showed an S1/2 in [1] of 6 nM.

Consider “human linker histone H1.0 (from UniProt P07305 1-194) (natural protein)”, for which the S1/2 in [4] came out at 13 nM; in [5] it was 14 nM; in data set [6] it was 15 nM; in data set [7], 14 nM; in [1], 9 nM.

Consider “CTGGAGACCGGAGGGCTGCCCTCCGGTCAATTGGTCGTAGACAGCTCTAGCACCGCTTAAACGCACGTACGCGCTGTCCCCCGCGTTTTAACCGCCAAGGGGATTACTCCCTAGTCTCCAGGCACGTGTCAGATATATACATCCTGTATAATGCATAGGGCAGTGAGTTGACGCTACAATCACGAATTCTGGATCCGATACGTAACGCGTCTGCAGCATGCG (double strand) [Linker-R nucleosome]”, for which the K half with Histone H1.0 (human) [3] (smaller FRET change, 5' AminoC6, human octamer) was 11 nM.
